Earlier results as cited in patent US20210265014A1, “METHOD AND ELECTRONIC SYSTEM FOR PREDICTING AT LEAST ONE FITNESS VALUE OF A PROTEIN VIA AN EXTENDED NUMERICAL SEQUENCE, RELATED COMPUTER PROGRAM PRODUCT” (PEACCEL, priority 2018, published 2021).

Biological target: T1, Glucagon like peptide-2 (GLP-2) receptor (Rattus norvegicus, UniProt Q9Z0W0)
T1 sequence (Q9Z0W0 1-550): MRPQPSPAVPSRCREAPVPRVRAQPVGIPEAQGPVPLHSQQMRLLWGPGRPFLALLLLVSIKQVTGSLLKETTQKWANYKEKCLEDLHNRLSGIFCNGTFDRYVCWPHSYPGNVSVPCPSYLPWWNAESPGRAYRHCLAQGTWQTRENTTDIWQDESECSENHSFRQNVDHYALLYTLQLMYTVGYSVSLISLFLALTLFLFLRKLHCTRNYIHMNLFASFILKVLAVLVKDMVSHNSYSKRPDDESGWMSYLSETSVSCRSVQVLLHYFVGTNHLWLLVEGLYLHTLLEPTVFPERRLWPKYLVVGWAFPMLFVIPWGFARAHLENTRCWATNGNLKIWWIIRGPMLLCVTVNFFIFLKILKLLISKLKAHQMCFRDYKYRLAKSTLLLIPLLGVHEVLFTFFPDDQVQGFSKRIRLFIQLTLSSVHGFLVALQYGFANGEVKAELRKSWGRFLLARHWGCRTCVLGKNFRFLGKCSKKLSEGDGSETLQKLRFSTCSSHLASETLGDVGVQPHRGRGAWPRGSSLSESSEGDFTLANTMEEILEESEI
Settings: receptor activation, fold increase over basal cAMP production

Substance | fold-increase in cAMP
A2G: variant of Glucagon like peptide-2 (GLP-2) [Chimera A2G] | 10.00 fold
D3A: alanine variant of Glucagon like peptide-2 (GLP-2) (HAAGSFSDEMNTILDNLAARDFINWLIQTKITD; Glucagon-like peptide 2; UniProt P01275 146-178, looked up, variant D3A) [Chimera D3A] | 1.02 fold
D8A: alanine variant of Glucagon like peptide-2 (GLP-2) (HADGSFSAEMNTILDNLAARDFINWLIQTKITD; Glucagon-like peptide 2; UniProt P01275 146-178, looked up, variant D8A) [Chimera D8A] | 7.53 fold
D15A: alanine variant of Glucagon like peptide-2 (GLP-2) (HADGSFSDEMNTILANLAARDFINWLIQTKITD; Glucagon-like peptide 2; UniProt P01275 146-178, looked up, variant D15A) [Chimera D15A] | 4.54 fold
D21A: alanine variant of Glucagon like peptide-2 (GLP-2) (HADGSFSDEMNTILDNLAARAFINWLIQTKITD; Glucagon-like peptide 2; UniProt P01275 146-178, looked up, variant D21A) [Chimera D21A] | 4.42 fold
D33A: alanine variant of Glucagon like peptide-2 (GLP-2) (HADGSFSDEMNTILDNLAARDFINWLIQTKITA; Glucagon-like peptide 2; UniProt P01275 146-178, looked up, variant D33A) [Chimera D33A] | 3.41 fold
E9A: alanine variant of Glucagon like peptide-2 (GLP-2) (HADGSFSDAMNTILDNLAARDFINWLIQTKITD; Glucagon-like peptide 2; UniProt P01275 146-178, looked up, variant E9A) [Chimera E9A] | 3.76 fold
F6A: alanine variant of Glucagon like peptide-2 (GLP-2) (HADGSASDEMNTILDNLAARDFINWLIQTKITD; Glucagon-like peptide 2; UniProt P01275 146-178, looked up, variant F6A) [Chimera F6A] | 1.67 fold
F22A: alanine variant of Glucagon like peptide-2 (GLP-2) (HADGSFSDEMNTILDNLAARDAINWLIQTKITD; Glucagon-like peptide 2; UniProt P01275 146-178, looked up, variant F22A) [Chimera F22A] | 1.61 fold
G4A: alanine variant of Glucagon like peptide-2 (GLP-2) (HADASFSDEMNTILDNLAARDFINWLIQTKITD; Glucagon-like peptide 2; UniProt P01275 146-178, looked up, variant G4A) [Chimera G4A] | 2.87 fold
H1A: alanine variant of Glucagon like peptide-2 (GLP-2) (AADGSFSDEMNTILDNLAARDFINWLIQTKITD; Glucagon-like peptide 2; UniProt P01275 146-178, looked up, variant H1A) [Chimera H1A] | 0.78 fold
I13A: alanine variant of Glucagon like peptide-2 (GLP-2) (HADGSFSDEMNTALDNLAARDFINWLIQTKITD; Glucagon-like peptide 2; UniProt P01275 146-178, looked up, variant I13A) [Chimera I13A] | 2.45 fold
I23A: alanine variant of Glucagon like peptide-2 (GLP-2) (HADGSFSDEMNTILDNLAARDFANWLIQTKITD; Glucagon-like peptide 2; UniProt P01275 146-178, looked up, variant I23A) [Chimera I23A] | 2.57 fold
I27A: alanine variant of Glucagon like peptide-2 (GLP-2) (HADGSFSDEMNTILDNLAARDFINWLAQTKITD; Glucagon-like peptide 2; UniProt P01275 146-178, looked up, variant I27A) [Chimera I27A] | 5.02 fold
I31A: alanine variant of Glucagon like peptide-2 (GLP-2) (HADGSFSDEMNTILDNLAARDFINWLIQTKATD; Glucagon-like peptide 2; UniProt P01275 146-178, looked up, variant I31A) [Chimera I31A] | 4.42 fold
K30A: alanine variant of Glucagon like peptide-2 (GLP-2) (HADGSFSDEMNTILDNLAARDFINWLIQTAITD; Glucagon-like peptide 2; UniProt P01275 146-178, looked up, variant K30A) [Chimera K30A] | 0.84 fold
L14A: alanine variant of Glucagon like peptide-2 (GLP-2) (HADGSFSDEMNTIADNLAARDFINWLIQTKITD; Glucagon-like peptide 2; UniProt P01275 146-178, looked up, variant L14A) [Chimera L14A] | 2.03 fold

Next, values leading:

fold-increase in cAMP | Substance
1.02 fold | L17A: alanine variant of Glucagon like peptide-2 (GLP-2) (HADGSFSDEMNTILDNAAARDFINWLIQTKITD; Glucagon-like peptide 2; UniProt P01275 146-178, looked up, variant L17A) [Chimera L17A]
2.33 fold | L26A: alanine variant of Glucagon like peptide-2 (GLP-2) (HADGSFSDEMNTILDNLAARDFINWAIQTKITD; Glucagon-like peptide 2; UniProt P01275 146-178, looked up, variant L26A) [Chimera L26A]
0.78 fold | M10A: alanine variant of Glucagon like peptide-2 (GLP-2) (HADGSFSDEANTILDNLAARDFINWLIQTKITD; Glucagon-like peptide 2; UniProt P01275 146-178, looked up, variant M10A) [Chimera M10A]
7.65 fold | N11A: alanine variant of Glucagon like peptide-2 (GLP-2) (HADGSFSDEMATILDNLAARDFINWLIQTKITD; Glucagon-like peptide 2; UniProt P01275 146-178, looked up, variant N11A) [Chimera N11A]
5.92 fold | N16A: alanine variant of Glucagon like peptide-2 (GLP-2) (HADGSFSDEMNTILDALAARDFINWLIQTKITD; Glucagon-like peptide 2; UniProt P01275 146-178, looked up, variant N16A) [Chimera N16A]
10.00 fold | N24A: alanine variant of Glucagon like peptide-2 (GLP-2) (HADGSFSDEMNTILDNLAARDFIAWLIQTKITD; Glucagon-like peptide 2; UniProt P01275 146-178, looked up, variant N24A) [Chimera N24A]
5.80 fold | Q28A: alanine variant of Glucagon like peptide-2 (GLP-2) (HADGSFSDEMNTILDNLAARDFINWLIATKITD; Glucagon-like peptide 2; UniProt P01275 146-178, looked up, variant Q28A) [Chimera Q28A]
3.94 fold | R20A: alanine variant of Glucagon like peptide-2 (GLP-2) (HADGSFSDEMNTILDNLAAADFINWLIQTKITD; Glucagon-like peptide 2; UniProt P01275 146-178, looked up, variant R20A) [Chimera R20A]
4.00 fold | S5A: alanine variant of Glucagon like peptide-2 (GLP-2) (HADGAFSDEMNTILDNLAARDFINWLIQTKITD; Glucagon-like peptide 2; UniProt P01275 146-178, looked up, variant S5A) [Chimera S5A]
7.59 fold | S7A: alanine variant of Glucagon like peptide-2 (GLP-2) (HADGSFADEMNTILDNLAARDFINWLIQTKITD; Glucagon-like peptide 2; UniProt P01275 146-178, looked up, variant S7A) [Chimera S7A]
3.11 fold | T12A: alanine variant of Glucagon like peptide-2 (GLP-2) (HADGSFSDEMNAILDNLAARDFINWLIQTKITD; Glucagon-like peptide 2; UniProt P01275 146-178, looked up, variant T12A) [Chimera T12A]
4.78 fold | T29A: alanine variant of Glucagon like peptide-2 (GLP-2) (HADGSFSDEMNTILDNLAARDFINWLIQAKITD; Glucagon-like peptide 2; UniProt P01275 146-178, looked up, variant T29A) [Chimera T29A]
0.84 fold | T32A: alanine variant of Glucagon like peptide-2 (GLP-2) (HADGSFSDEMNTILDNLAARDFINWLIQTKIAD; Glucagon-like peptide 2; UniProt P01275 146-178, looked up, variant T32A) [Chimera T32A]
1.37 fold | W25A: alanine variant of Glucagon like peptide-2 (GLP-2) (HADGSFSDEMNTILDNLAARDFINALIQTKITD; Glucagon-like peptide 2; UniProt P01275 146-178, looked up, variant W25A) [Chimera W25A]
